Laboratory results reported in the RNAGym collection of RNA variant scans (doi:10.1073/pnas.2313332121).
Fewer inactive variants are shown than the library holds.

B1: TPR 5TU (parent)
chain: GGAUCUUCUCGAUCUAACAAAAAAGACAAAUCUGCCACAAAGCUUGAGAGCAUCUUCGGAUGCAGAGGCGGCAGCCUUCGGUGGCGCGAUAGCGCCAACGUUCUCAACUAUGACACGCAAAACGCGUGCUCCGUUGAAUGGAGUUUAUCAUG

Variants of: B1
Experiment: polymerase ribozyme fitness, log enrichment relative to wild type (log ratio); higher = more active; in vitro selection for triplet polymerase activity
Outline: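 A heterodimeric triplet polymerase ribozyme had each of its subunits mutagenized by PCR into a library, which was transcribed. One round of in vitro selection, done in triplicate, annealed each library with a biotinylated primer, its partner subunit and triplets, then incubated it frozen at −7 °C before gel excision of extended constructs, streptavidin-bead capture and RT-PCR. Fitness is the logarithm of genotype enrichment relative to wild-type enrichment, based on Illumina sequencing of inputs and outputs and inverse-variance-weighted replicate averages. A base-2 logarithm is used, and genotypes were kept only with ≥10 input reads and ≥1 read per output.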

Variant	polymerase ribozyme fitness (log ratio)
A107G G143U	-3.81
C118G	-1.01
C118U	-0.256
C118A	-0.751
U109G C125U C129U	-4.06
U102G C116G	-1.67
C99U U104G	-1.84
C108G G143C A147C	≤ -4.2
G128C	-2.21
G128U	-2.53
G128A	-2.74
C99U U104A U109C A115G	-3.79
C131U U148C	-2.73
G126A C132U	-0.105
U102G G141C	-3.94
G100C	-3.72
G100U	-2.58
G100A	-3.76
G126U U135C	-1.61
C99G A113C U135C	≤ -4.2
A121G G141U C149U	-3.72
C105U A138U	-2.82
U109A G124A G140C	≤ -4.2
A113G A147C	-2.73
C125U U145C	-0.634

Variant	polymerase ribozyme fitness (log ratio)
U104A G143A	-1.63
U101G G128U U144G	-4
U101G U134A U144C A150U	-4.09
A98U U127G	-3.18
C105U G140A	-2.92
C99U G141A	-0.231
C103A A107C A142C	≤ -4.2
C108A A121U	≤ -4.2
U109G A115U C125A	-4.05
C125A U146G	-0.126
C125A U146C	-0.394
G140C U144G	-3.51
C118G A142G	-1.54
G140U U144C	-3.28
A113U G117U	-2.07
C105A U135C	-2.39
A121G U144C	-0.191
C99U G126U	-0.0913
A120C G141C	-0.144
G112A U148C	-4.13
C123A G141C	0.333
U102G A142U	-3.35
U101G A138U	-3.25
A110G C149G	-3.83
C99U G117C	0.786

Variant	polymerase ribozyme fitness (log ratio)
A107G G140U U151A	≤ -4.2
A137U U144G	-4.2
A119U U134A	-2.99
C99A U134G	-2.57
A107U U109G	≤ -4.2
C125A U148C	-3.48
C125A U148A	-3.93
U127G A147U	-3.92
C105G	-0.829
C105U	0.527
C105A	-0.411
G124U G136A	0.382
A119U G140U	-3.25
U135G A137U U139A U151G	≤ -4.2
C118U A142G U148C	-2.86
C125U U146G	-1.15
U109C C114U	-3.87
U111A G124A U135C	-3.76
C114U U139C	-3.63
G140U G141C	-3.07
A138C U144G	-3.7
A138C A142G	-3.66
C125U U148G	≤ -4.2
C103G C123G G136U	-2.77
C99A A120C U148G	≤ -4.2

Variant	polymerase ribozyme fitness (log ratio)
G143A U145A	-2.03
A119U G126A U135C G141C	-3.75
A107U C118G A147U C149G U151G	≤ -4.2
C103G A115C A137G C149G	≤ -4.2
U104G A142G G152U	-3.73
C103G G143U	≤ -4.2
A107G A121U	-4.18
A107U G141C	-3.87
A115U C118A	-1.83
G124U G140A	-4
A110G U134G	-4.07
G124U U134G	-2.98
U101G A115G	-0.695
U101G G133U	-2.8
U104C C116G	0.144
U109A U151A	≤ -4.2
U144A U145A	-0.541
C132G G133U	-2.9
C99G U146G	-1.32
G117U U135C	-2.36
A147U	1.1
A147C	0.176
A147G	-0.913
C108U G136U	-3.41
A147U U148A	-2.81

Variant	polymerase ribozyme fitness (log ratio)
G141A A147C	-3.63
C116U G141U	1.29
C116A A142C	-3.92
U104C A106G	-0.701
G143U G152A	-3.69
G117A	0.231
G117C	0.422
G117U	-0.0156
A110C G136U	≤ -4.2
U102A C114U A115G A120U	-3.62
U134C U144G	0.895
A122G U139C	-4.09
C99U G143C	-2.66
C99G A107C G143C	≤ -4.2
C99A U146A	-1.15
C99A U146G	-1.41
A106U U135A A150U	-1.22
G136U G143C	-3.26
C116U U146A	-0.753
G133U U148G	-4.1
G128A G133U	-4
C114U A137C	-3.52
G126A G140A	-3.54
C118U A119U	-0.842
A121G G143A A147U	-1.46

Variant	polymerase ribozyme fitness (log ratio)
A107G G141C	-3.86
A107G G141A	-2.72
A106G A113U U135G	≤ -4.2
C105U U135A	0.0587
U135C U151A	≤ -4.2
A121C C123A U127C	-1.91
G143A	-0.315
G143U	-1.84
G143C	-1.78
U104C G124U C125A G143U	-3.85
U135C U145C	-2.51
G124C G143U	-3.2
U102C C131U U134G	-4.13
C99U G126A G143U	-3.55
C114G G124C	-4.13
U101G A120G	-0.0391
A121G U135A	-0.777
A107C C116G	-3.74
C99U U144A	-1.02
G100A G124A	≤ -4.2
A120U U135C	-2.85
C103A A107U U134A	≤ -4.2
A121C A137U A147G	≤ -4.2
U104G A120C	0.532
C114U G124C	-4.11

Variant	polymerase ribozyme fitness (log ratio)
C114U G124U	-3.13
A119U G126A	0.174
G124C G136A	-2.84
C114U U151C	≤ -4.2
C114U U151G	-4.08
C99A C131G	≤ -4.2
A119G C125A	0.204
A121G U127C	-2.42
C105A C125A	-3.83
U127G G140A	-4.15
U102G G152U	≤ -4.2
C99U A107G	-4.16
C99U A107U	-3.88
U101A C105U C114A	-3.17
G124C	-0.922
G124A	-0.246
G124U	-0.432
G140A G141A	-3.15
U102C U134G G136U A138U	≤ -4.2
C116A U148C	-3.09
C131A A138C U139G	-3.67
C118U A120G G143C	-2.13
A121U G143C	-1.7
U134C	0.0692
U134A	-2.25

Variant	polymerase ribozyme fitness (log ratio)
U134G	-2.37
U144G	0.948
U144C	0.0778
U144A	-0.043
U104G A113U U127A G141A	≤ -4.2
C105G G141C	-2.56
C114U A122G	-1.87
U146C A150U	0.851
U134A G140A	-3.58
A121G	-0.0563
A121U	-0.0614
A121C	0.117
G136C U146C	-2.93
A115G U146A	-1.38
G141U U146A	0.37
C105A G140U	-4.11
A121G A122C A137C	-4.06
U139G C149G	-3.88
C131G G133U	-3.77
C99G U134C	-0.713
C108U C114U	-4.06
A113U C116U	-1.33
C125U U134A	-1.89
C99U U145G	-2.09
C103A A150G	-4.09

Variant	polymerase ribozyme fitness (log ratio)
G128A G136A	-4.18
A115U G136A	-1.18
C116U U145C U148C	-2.77
C99G C116U	-0.76
C99G C108A A110G	≤ -4.2
C105U A120G A122C	0.479
A137G G141C	-2.74
C103G A120U U146G	-1.37
U101A	0.177
U101C	0.385
U101G	0.557
C125G A142C	-4.01
C132U U145G	-0.815
C125G	-0.473
C125U	-0.476
C125A	-0.171
G143C U146A	-3.65
C108U G133U	-3.96
C125G U127A	-3.68
U130C	1.27
U130A	-1.66
U130G	-2.99
C125A U134C U148A G152A	-4.13
A115G G124C C132G A137U	≤ -4.2
U134A A142G U144G	-2.83

Variant	polymerase ribozyme fitness (log ratio)
G133U U135A U139G U144G A150U	-4.1
U127G U134C	-3.03
C129G G143A	-2.23
C149U A150G	-2.95
G100U A142C	-4.17
G126U C149U	-1.96
A107C A142C	-4.05
G100A A107U	≤ -4.2
C114A G140A U148G	≤ -4.2
U102G A120U	-1.94
U101G A150G	-0.649
C103A U146C	-1.49
A122G G143A	-1.03
C99A U135A	-2.77
A98U U134G	-2.65
C132U U139G G140A	1.22
C103U U134A	-2.39
A115C G124U U144G	-3.11
A98U C118U U144G	0.244
U104G C118A A122C	-2.35
U144C U145C	-0.39
U135G	-3.19
U135C	-1.38
U135A	-0.939
C103A U109G	-3.53

Variant	polymerase ribozyme fitness (log ratio)
A106G A120U A121G A122G G143C	-2.43
U102C C114G	-4.11
G126A A142C	-3.28
U146C U151G	≤ -4.2
A119U A121G U135C U146A A150G	-3.77
C103U	-0.357
C103A	-1.23
C103G	-1.4
A137U U145A A147C	≤ -4.2
C116U U151C	-4.04
A119U U139C	-3.94
G126A A138C	-3.73
C105U A106C	0.388
U102G U127C	-4.17
A113C U148C	-3.73
U109G A110C	≤ -4.2
G152U	-2.19
G152A	-1.77
G152C	-2.58
U127C U139C U151G	≤ -4.2
C103G U130A	-4.04
G117U G143A	-0.982
A98U G136U	-2.64
C105A C129G	≤ -4.2
C125U G143U	-3.2

Variant	polymerase ribozyme fitness (log ratio)
C99A G143A	-2.02
U109G U139C A142U	-3.41
A107U U135C	-4.04
G126A G133C U146C	-2.5
C116A G140U	-4.02
G133U U135G	-4.04
C99U A115C	-1.19
G141C G143C	≤ -4.2
C114A C132U G133C	-3.96
A110C A121U	-4.04
U101A A115U G141A	-2.17
G133C U144C C149U	-3.98
U127A G128U	-3.18
U102C	-0.787
U102G	-2.51
U102A	-0.854
C123A C132G	-3.17
C105U G124U	-0.374
U102A A113C	-3.86
C116G G124C U148C	≤ -4.2
